Laboratory results as given in US20210069341A1 (published 2021).
Each block holds one binder with its values, some of them ahead of it.

Columns and labels:
human FcRn protein = human FcRn protein (human, UniProt P55899 24-297; P61769 21-119); assay: binding affinity; pH 6
human FcγRI = target: T1, human FcγRI (human, UniProt P12314 16-288); assay: binding affinity
T1 chain: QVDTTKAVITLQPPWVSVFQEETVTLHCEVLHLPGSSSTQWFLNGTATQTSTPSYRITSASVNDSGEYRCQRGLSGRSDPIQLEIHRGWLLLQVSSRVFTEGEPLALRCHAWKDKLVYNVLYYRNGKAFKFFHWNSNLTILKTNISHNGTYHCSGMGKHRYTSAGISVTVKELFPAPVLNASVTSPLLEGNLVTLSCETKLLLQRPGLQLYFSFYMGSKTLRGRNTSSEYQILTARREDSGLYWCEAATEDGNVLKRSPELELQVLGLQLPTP

human FcγRIIb = target: T2, human FcγRIIb (human, UniProt P31994 46-217); assay: binding affinity
T2 chain: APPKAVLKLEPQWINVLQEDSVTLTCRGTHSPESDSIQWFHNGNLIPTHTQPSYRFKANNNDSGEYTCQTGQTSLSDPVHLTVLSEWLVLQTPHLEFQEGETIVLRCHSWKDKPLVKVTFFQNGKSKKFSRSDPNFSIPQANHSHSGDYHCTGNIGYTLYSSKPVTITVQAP

[1] = target: human FcγRIIIa, 158V allele (human, UniProt P08637 17-208); assay: binding affinity
human FcγRIIIa, 158V allele, sequence (P08637 17-208 F176V): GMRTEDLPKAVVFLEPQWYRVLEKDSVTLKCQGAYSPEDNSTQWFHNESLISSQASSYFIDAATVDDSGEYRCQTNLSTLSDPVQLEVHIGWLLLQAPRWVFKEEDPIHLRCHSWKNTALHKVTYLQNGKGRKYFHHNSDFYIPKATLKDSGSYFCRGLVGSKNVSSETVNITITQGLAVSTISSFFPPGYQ

human FcγRIIa = target: T3, human FcγRIIa (human, UniProt P12318 36-218); assay: binding affinity
T3 chain: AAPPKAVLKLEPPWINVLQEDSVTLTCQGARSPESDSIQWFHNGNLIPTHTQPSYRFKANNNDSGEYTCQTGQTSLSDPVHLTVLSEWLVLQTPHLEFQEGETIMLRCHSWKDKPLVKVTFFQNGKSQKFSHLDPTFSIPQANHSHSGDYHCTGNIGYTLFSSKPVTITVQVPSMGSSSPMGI

[2] = target: human FcγRIIIa, 158F allele (human, UniProt P08637 17-208); assay: binding affinity
human FcγRIIIa, 158F allele, sequence (P08637 17-208): as the sequence (P08637 17-208 F176V) above, with V160F counted along it

- Kd (human FcRn protein): 1050 nM
- Kd (human FcγRI): ~133 nM
B1: antibody with the C239ins cysteine engineered Fc region (Fc receptor affinity analysis) (antibody)
Fc: APELLGGPSCVFLFPPKPKDTLMISRTPEVTCVVVDVSHEDPEVKFNWYVDGVEVHNAKTKPREEQYNSTYRVVSVLTVLHQDWLNGKEYKCKVSNKALPAPIEKTISKAKGQPREPQVYTLPPSRDELTKNQVSLTCLVKGFYPSDIAVEWESNGQPENNYKTTPPVLDSDGSFFLYSKLTVDKSRWQQGNVFSCSVMHEALHNHYTQKSLSLSPGK

- Kd (human FcRn protein): 976 nM
- Kd (human FcγRIIb): 6310 nM
- Kd [1]: 1460 nM
- Kd (human FcγRI): ~16 nM
- Kd (human FcγRIIa): 2540 nM
- Kd [2]: 5700 nM
B2: antibody with the L234F/S239A/S442C triple mutation (Fc receptor affinity analysis) (antibody)
Fc: APEFLGGPAVFLFPPKPKDTLMISRTPEVTCVVVDVSHEDPEVKFNWYVDGVEVHNAKTKPREEQYNSTYRVVSVLTVLHQDWLNGKEYKCKVSNKALPAPIEKTISKAKGQPREPQVYTLPPSRDELTKNQVSLTCLVKGFYPSDIAVEWESNGQPENNYKTTPPVLDSDGSFFLYSKLTVDKSRWQQGNVFSCSVMHEALHNHYTQKSLCLSPGK
